Where a chain is given by its changes, count along the chain named.

We go through 5 molecules from patent US20230203463, “RNA-GUIDED NUCLEASES AND ACTIVE FRAGMENTS AND VARIANTS THEREOF AND METHODS OF USE” (LifeEDIT Therapeutics, Inc., published 2023).

One series has as its system T1, APG05405 (Bacillus sp.).
T1 sequence: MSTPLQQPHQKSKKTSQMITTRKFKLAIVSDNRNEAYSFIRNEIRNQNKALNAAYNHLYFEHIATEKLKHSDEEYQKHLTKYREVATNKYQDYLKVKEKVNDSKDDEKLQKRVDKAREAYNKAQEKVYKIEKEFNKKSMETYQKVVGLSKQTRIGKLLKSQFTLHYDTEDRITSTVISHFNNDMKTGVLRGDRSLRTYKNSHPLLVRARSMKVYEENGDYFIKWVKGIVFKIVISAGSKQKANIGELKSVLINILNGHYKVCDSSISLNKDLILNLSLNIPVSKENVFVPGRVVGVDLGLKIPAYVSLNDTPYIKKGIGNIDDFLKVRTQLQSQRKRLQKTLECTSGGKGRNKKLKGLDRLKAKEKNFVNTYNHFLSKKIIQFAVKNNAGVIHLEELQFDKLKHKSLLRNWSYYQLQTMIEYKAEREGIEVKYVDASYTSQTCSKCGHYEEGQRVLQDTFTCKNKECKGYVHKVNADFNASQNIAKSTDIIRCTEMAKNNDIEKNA
As to the kind of experiment: cleavage_in_vitro. To be noted: trans cleavage.

The target in another series is T2, APG09624 (Bacillus sp.).
T2 chain: T1 sequence with D102A, I177L, T311N, K326N, S333N, N352S
As to the kind of experiment: thermal shift; peaks 39 and 44 C vs 38 C without RNA. The conditions noted are these: tags: C-terminal His10. As for the experimental part: (§1) RNA binding was confirmed by differential scanning fluorimetry (Niesen, F.H., H. Berglund, and M. Vedadi. 2007. Nat. Protoc. 2: 2212-2221). Dual RNA complexes were produced by mixing an excess of crRNA with tracrRNA in Annealing Buffer (Synthego, 60 mM KCl 6 mM HEPES pH 7). The candidate effector protein and guide RNA (either dual RNA complex or sgRNA) were incubated at final concentrations of 0.5 µM effector protein and 1 µM guide RNA in phosphate buffered saline (PBS, Thermo Fisher). These were incubated for 20 minutes at room temperature and then mixed 1:1 with Sypro Orange dye solution that had been diluted in PBS. A melt curve was obtained measuring fluorescence intensity (FI) as a function of temperature and the first derivative of the melt curve (dFI/dT) was calculated. A shift in the plot of dFI/dT as a function of temperature of the putative RNP relative to the original nuclease indicates RNA binding and was used to evaluate putative guide RNA combinations. […] Peak 1 refers to the temperature associated with the largest observed peak for the given sample. If a second peak is observed, it is indicated in the Peak 2 column. Interpretation of the data regarding the formation of a complex is indicated in the “Binding?” column Table 3. “Yes” indicates binding was observed. “N/A” indicates sufficient data was not available to determine if binding could occur.

A further series deals with T3, APG05405 (Bacillus sp.).
T3 chain: T1 sequence
As to the kind of experiment: thermal shift; peak 43 C vs 36 C without RNA. To be noted: tags: C-terminal His10. As for the experimental part:
as §1

Take “GGGAAACAGCUAGAAUGUAACUUAAAGUAGGUCAAUGUUUAAAUUCGAUGUUGCAAUUUGUUUGGACAAGUGGAUUAAAACGUUCCUUGAAAAUCAUAUAAAGCAGCCAGUUUACGGGCUUGGGCGAAUUUGCGUCCAAAGGGUGAGGCCAGGUGUAAGUAAGAACCUACAAAAGCACUCACCAAAGGGUCAAAAAGAUCCUACAUGGAUGUGAGGAUUGAAAUUGGAAUGGGAACUAAAGU / TCGTCGGCAGCGTCAGATGTGTATAAGAGACAGAACGACGGCCAGTGAATTNNNNNNNNACTACAACAGCCACAACGTCTATATCATGGGATCCTCTAGAGTCGACCTGCTGTCTCTTATACACATCTCCGAGCCCACGAGAC / GTCTCGTGGGCTCGGAGATGTGTATAAGAGACAGCAGGTCGACTCTAGAGGATCCCATGATATAGACGTTGTGGCTGTTGTAGTNNNNNNNNAATTCACTGGCCGTCGTTCTGTCTCTTATACACATCTGACGCTGCCGACGA [sgRNA Gsg.3 ; dsPCR2]”: the activity in the series on APG05405 (Bacillus sp.) (non-matching guide) was determined as 78 AU/min.

In the series on APG05405 (Bacillus sp.) (NEBuffer 2, 37 C, degenerate 8 bp 5' of target, PAM not determined), “GGGAAACAGCUAGAAUGUAACUUAAAGUAGGUCAAUGUUUAAAUUCGAUGUUGCAAUUUGUUUGGACAAGUGGAUUAAAACGUUCCUUGAAAAUCAUAUAAAGCAGCCAGUUUACGGGCUUGGGCGAAUUUGCGUCCAAAGGGUGAGGCCAGGUGUAAGUAAGAACCUACAAAAGCACUCACCAAAGGGUCAAAAAGAUCCUACAUGGAUGUGAGGAUUGAAAUACUACAACAGCCACAACG / TCGTCGGCAGCGTCAGATGTGTATAAGAGACAGAACGACGGCCAGTGAATTNNNNNNNNACTACAACAGCCACAACGTCTATATCATGGGATCCTCTAGAGTCGACCTGCTGTCTCTTATACACATCTCCGAGCCCACGAGAC / GTCTCGTGGGCTCGGAGATGTGTATAAGAGACAGCAGGTCGACTCTAGAGGATCCCATGATATAGACGTTGTGGCTGTTGTAGTNNNNNNNNAATTCACTGGCCGTCGTTCTGTCTCTTATACACATCTGACGCTGCCGACGA [sgRNA Gsg.2 ; dsPCR2]” registered an activity of 768 AU/min.

In turn, “GGGAAACAGCUAGAAUGUAACUUAAAGUAGGUCAAUGUUUAAAUUCGAUGUUGCAAUUUGUUUGGACAAGUGGAUUAAAACGUUCCUUGAAAAUCAUAUAAAGCAGCCAGUUUACGGGCUUGGGCGAAUUUGCGUCCAAAGGGUGAGGCCAGGUGUAAGUAAGAACCUACAAAAGCACUCACCAAAGGGUCAAAAAGAUCCUACAUGGAUGUGAGGAUUGAAAUACUACAACAGCCACAACG / TCGTCGGCAGCGTCAGATGTGTATAAGAGACAGAACGACGGCCAGTGAATTNNNNNTGGAATGGGAACTAAAGTAATGGCAAACGAATTCGTAGGATCCTCTAGAGTCGACCTGCTGTCTCTTATACACATCTCCGAGCCCACGAGAC / GTCTCGTGGGCTCGGAGATGTGTATAAGAGACAGCAGGTCGACTCTAGAGGATCCTACGAATTCGTTTGCCATTACTTTAGTTCCCATTCCANNNNNAATTCACTGGCCGTCGTTCTGTCTCTTATACACATCTGACGCTGCCGACGA [sgRNA Gsg.2 ; dsPCR3]” showed an activity in the series on APG05405 (Bacillus sp.) (non-matching guide) of 102 AU/min.

For the molecule “GGGAAACAGCUAGAAUGUAACUUAAAGUAGGUCAAUGUUUAAAUUCGAUGUUGCAAUUUGUUUGGACAAGUGGAUUAAAACGUUCCUUGAAAAUCAUAUAAAGCAGCCAGUUUACGGGCUUGGGCGAAUUUGCGUCCAAAGGGUGAGGCCAGGUGUAAGUAAGAACCUACAAAAGCACUCACCAAAGGGUCAAAAAGAUCCUACAUGGAUGUGAGGAUUGAAAUUGGAAUGGGAACUAAAGU / TCGTCGGCAGCGTCAGATGTGTATAAGAGACAGAACGACGGCCAGTGAATTNNNNNTGGAATGGGAACTAAAGTAATGGCAAACGAATTCGTAGGATCCTCTAGAGTCGACCTGCTGTCTCTTATACACATCTCCGAGCCCACGAGAC / GTCTCGTGGGCTCGGAGATGTGTATAAGAGACAGCAGGTCGACTCTAGAGGATCCTACGAATTCGTTTGCCATTACTTTAGTTCCCATTCCANNNNNAATTCACTGGCCGTCGTTCTGTCTCTTATACACATCTGACGCTGCCGACGA [sgRNA Gsg.3 ; dsPCR3]”, the activity with APG05405 (Bacillus sp.) (NEBuffer 2, 37 C, degenerate 5 bp 5' of target, PAM not determined) was 780 AU/min.

B1: crRNA 143 + tracrRNA 145 (ssRNA)
RNA 1: GUCACAUCCUACAUGGAUGUGAGGAUUGAAAUUGGAAUGGGAACUAAAGUAAUGG
RNA 2: AAACAGCUAGAAUGUAACUUAAAGUAGGUCAAUGUUUAAAUUCGAUGUUGCAAUUUGUUUGGACAAGUGGAUUAAAACGUUCCUUGAAAAUCAUAUAAAGCAGCCAGUUUACGGGCUUGGGCGAAUUUGCGUCCAAAGGGUGAGGCCAGGUGUAAGUAAGAACCUACAAAAGCACUCACCAAAGGGUCAACUCGAUACAUU
Turning to B1, the binding result with APG09624 and with APG05405 was “binds” throughout.
